{
  "source": "the supplement of paper PMC10567573",
  "assay": "protein stability index of a GFP-peptide fusion (GPS, HEK-293T) (PSI 1-6); higher = more stable",
  "details": "c terminus: a fixed tail appended",
  "data": [
    {"protein": "WEVQVSPTCPVCKDRASPADLRTN", "values": [
      {"measurement": "protein stability index", "setting": "parent: IOH40792_9", "result": 2.54}
    ]},
    {"protein": "RRPSPVLRHLELLDEFARENIDSL", "values": [
      {"measurement": "protein stability index", "setting": "parent: IOH42569_24", "result": 2.6}
    ]},
    {"protein": "APKKELINIKGISEAKADKILAEA", "values": [
      {"measurement": "protein stability index", "setting": "parent: IOH41191_10", "result": 4.71}
    ]},
    {"protein": "NWRYATGGWETVFRPVSETCTDRS", "note": "[FUT8 WT]", "values": [
      {"measurement": "protein stability index", "setting": "parent: IOH44218_42", "result": 1.78}
    ]},
    {"protein": "YIKVDWQRVEKDMKKAKEQLKIRK", "note": "[FUNDC2 WT]", "values": [
      {"measurement": "protein stability index", "setting": "parent: IOH40818_22", "result": 1.68}
    ]},
    {"protein": "DRKLHSRPRKLYKHSSTSSRIAKG", "values": [
      {"measurement": "protein stability index", "setting": "parent: IOH43395_4", "result": 3.86}
    ]},
    {"protein": "RTHTGEQPYTCSICRRNFSRRSSL", "note": "[ZNF75A WT]", "values": [
      {"measurement": "protein stability index", "setting": "parent: IOH41486_45", "result": 2.88}
    ]},
    {"protein": "RVAKKLQSGLVWTNCWLIRELNLP", "values": [
      {"measurement": "protein stability index", "setting": "parent: IOH41048_73", "result": 2.99}
    ]},
    {"protein": "WCLVQICEKYLPGYYSEKLEAIQL", "note": "[TBC1D10A WT]", "values": [
      {"measurement": "protein stability index", "setting": "parent: IOH41348_37", "result": 2.8}
    ]},
    {"protein": "FTGSQPTAERITQLSAPHCKKLSL", "values": [
      {"measurement": "protein stability index", "setting": "parent: IOH41048_39", "result": 2.08}
    ]},
    {"protein": "DKELLCCSCQADPRHQGHRVQPVK", "values": [
      {"measurement": "protein stability index", "setting": "parent: IOH40792_20", "result": 3.56}
    ]},
    {"protein": "INRADYCPECYPDNPANRSLVLPW", "note": "[IFRG15 WT]", "values": [
      {"measurement": "protein stability index", "setting": "parent: IOH41552_8", "result": 2.18}
    ]},
    {"protein": "AQLQALRQKEVDFCISLLRERFME", "values": [
      {"measurement": "protein stability index", "setting": "parent: IOH41890_38", "result": 2.31}
    ]},
    {"protein": "LTLVFFVQITGQPNILFYASTVLK", "values": [
      {"measurement": "protein stability index", "setting": "parent: IOH40813_48", "result": 2.98}
    ]},
    {"protein": "CLLGLGSLVLILSLSYTVLIVGRI", "values": [
      {"measurement": "protein stability index", "setting": "parent: IOH40813_20", "result": 3.34}
    ]},
    {"protein": "EEITEESLEESVGKPLYLIFRNLC", "values": [
      {"measurement": "protein stability index", "setting": "parent: IOH41890_107", "result": 2.68}
    ]},
    {"protein": "TKEKKHQCDHCERCFYTRKDVRRH", "values": [
      {"measurement": "protein stability index", "setting": "parent: IOH42591_26", "result": 3.45}
    ]},
    {"protein": "PRYREDPCKQCKKKYVKGDVSLCR", "values": [
      {"measurement": "protein stability index", "setting": "parent: IOH41760_105", "result": 2.57}
    ]},
    {"protein": "DLNSKGKKREFRFHPIKETVVEEP", "values": [
      {"measurement": "protein stability index", "setting": "parent: IOH41890_91", "result": 2.23}
    ]},
    {"protein": "YSAYIRRCACAASSDESPGSKCSP", "note": "[TTC32 WT]", "values": [
      {"measurement": "protein stability index", "setting": "parent: IOH43157_6", "result": 1.99}
    ]},
    {"protein": "TPAKSLDKFIEDYLLPDTCFRMQI", "values": [
      {"measurement": "protein stability index", "setting": "parent: IOH41283_2", "result": 2.79}
    ]},
    {"protein": "ASSVESTLPVLEASSWKKQVSHDF", "values": [
      {"measurement": "protein stability index", "setting": "parent: IOH41760_90", "result": 3}
    ]},
    {"protein": "LCKDCQVIDGRNVTVTDVDIVFSK", "note": "[TPPP WT]", "values": [
      {"measurement": "protein stability index", "setting": "parent: IOH43477_14", "result": 2.25}
    ]},
    {"protein": "IRVMVHGRNHTPFLGHHSFSVRPG", "values": [
      {"measurement": "protein stability index", "setting": "parent: IOH42569_55", "result": 2.25}
    ]},
    {"protein": "PTCPVCKDRASPADLRTNHTLNNL", "values": [
      {"measurement": "protein stability index", "setting": "parent: IOH40792_10", "result": 2.83}
    ]},
    {"protein": "FLGHHSFSVRPGTEATISIREDEV", "values": [
      {"measurement": "protein stability index", "setting": "parent: IOH42569_57", "result": 1.72}
    ]},
    {"protein": "EDLTAKRKRMKMDKTCSKTKNKSK", "note": "[FAM9B WT]", "values": [
      {"measurement": "protein stability index", "setting": "parent: IOH41618_11", "result": 4.96}
    ]},
    {"protein": "LQLGEGVEFDVLPAFDALGQLTGG", "values": [
      {"measurement": "protein stability index", "setting": "parent: IOH41283_24", "result": 1.9}
    ]},
    {"protein": "FHPIKETVVEEPVDITPYLDQLDE", "values": [
      {"measurement": "protein stability index", "setting": "parent: IOH41890_93", "result": 3.32}
    ]},
    {"protein": "FVYENAKEGARNIRTSERVTLIVD", "values": [
      {"measurement": "protein stability index", "setting": "parent: IOH43395_26", "result": 1.94}
    ]},
    {"protein": "LTVYAWERGSMKTHFNTAQGFRTV", "values": [
      {"measurement": "protein stability index", "setting": "parent: IOH41283_40", "result": 2.27}
    ]},
    {"protein": "FSDDEEDLNSKGKKREFRFHPIKE", "values": [
      {"measurement": "protein stability index", "setting": "parent: IOH41890_90", "result": 2.85}
    ]},
    {"protein": "WSSRSPQERSRVLNQVADLLEQSL", "values": [
      {"measurement": "protein stability index", "setting": "parent: IOH41048_11", "result": 2.54}
    ]},
    {"protein": "VVAYLALAALSATISFRIYKSVLQ", "note": "[RTN1 WT]", "values": [
      {"measurement": "protein stability index", "setting": "parent: IOH40898_10", "result": 3.02}
    ]},
    {"protein": "RFLRMLLRLADEFGVAVVITNQVV", "values": [
      {"measurement": "protein stability index", "setting": "parent: IOH41191_42", "result": 2.39}
    ]},
    {"protein": "EEAEELAKEMSVPFYTSRIDEVLL", "values": [
      {"measurement": "protein stability index", "setting": "parent: IOH42390_7", "result": 3.76}
    ]},
    {"protein": "LELGSTEVLLDHLKAHAEEKPPSG", "values": [
      {"measurement": "protein stability index", "setting": "parent: IOH42591_22", "result": 4.44}
    ]},
    {"protein": "FYRLYQDLETHRLPCTSRCPRPCR", "values": [
      {"measurement": "protein stability index", "setting": "parent: IOH42569_73", "result": 2.21}
    ]},
    {"protein": "ETAAGKGKGEARARLKRSQSFGVA", "values": [
      {"measurement": "protein stability index", "setting": "parent: IOH43320_31", "result": 4.31}
    ]},
    {"protein": "YIGTHEYPHFSHRPSTLQAASTPQ", "values": [
      {"measurement": "protein stability index", "setting": "parent: IOH41283_62", "result": 1.94}
    ]},
    {"protein": "QKNFELAFTMAENLANCERLIEVE", "values": [
      {"measurement": "protein stability index", "setting": "parent: IOH43320_45", "result": 1.84}
    ]},
    {"protein": "EKPPSGTKEKKHQCDHCERCFYTR", "values": [
      {"measurement": "protein stability index", "setting": "parent: IOH42591_25", "result": 3.58}
    ]},
    {"protein": "CKDFLCQFCAQRFGRKDHLTRHTK", "values": [
      {"measurement": "protein stability index", "setting": "parent: IOH42591_31", "result": 2.02}
    ]},
    {"protein": "AFTMAENLANCERLIEVEDMMVMG", "values": [
      {"measurement": "protein stability index", "setting": "parent: IOH43320_46", "result": 2.04}
    ]},
    {"protein": "FTSGFNAAALDYEADGSTNNGIFQ", "note": "[SPACA3 WT]", "values": [
      {"measurement": "protein stability index", "setting": "parent: IOH42995_21", "result": 1.89}
    ]},
    {"protein": "SDDFCTFQMVLEGGVCCTVTLNFN", "values": [
      {"measurement": "protein stability index", "setting": "parent: IOH42390_37", "result": 3.15}
    ]},
    {"protein": "YPPLEGHVRQGVFSSLNHIVEKRV", "values": [
      {"measurement": "protein stability index", "setting": "parent: IOH41890_75", "result": 2.53}
    ]},
    {"protein": "KKREFRFHPIKETVVEEPVDITPY", "values": [
      {"measurement": "protein stability index", "setting": "parent: IOH41890_92", "result": 1.94}
    ]},
    {"protein": "DPNKMAFGCEECGKKYNTMLGYKR", "values": [
      {"measurement": "protein stability index", "setting": "parent: IOH42591_15", "result": 2.34}
    ]},
    {"protein": "TRIMIGLTLVFFVQITGQPNILFY", "values": [
      {"measurement": "protein stability index", "setting": "parent: IOH40813_47", "result": 3.31}
    ]},
    {"protein": "YPCLEKPRIWSLAHTATASAVEGA", "note": "[IRX6 WT]", "values": [
      {"measurement": "protein stability index", "setting": "parent: IOH43040_58", "result": 2.44}
    ]},
    {"protein": "TGEFLKLPFERLAFVLSSNSLKHC", "values": [
      {"measurement": "protein stability index", "setting": "parent: IOH40892_39", "result": 2.65}
    ]},
    {"protein": "GVSKVGLRKIIDFIYTAKLSLNMD", "values": [
      {"measurement": "protein stability index", "setting": "parent: IOH40892_24", "result": 2.67}
    ]}
  ]
}
